We go through four substances from patent publication US20130323282A1.

Assay [1] concerns the target CD81 MBP-LEL113-201 (maltose-binding protein linked to the CD81 large extracellular loop, residues 113 to 201), dimeric form (UniProt P60033). The experiment in a line: SPR; 1:1 model for dimer/trimer, two-state model for monomer.
Assay [2] has the same target. The experiment in a line: SPR; 1:1 Langmuir model.

Sequence of UniProt P60033 (P60033 113-201 limits assumed): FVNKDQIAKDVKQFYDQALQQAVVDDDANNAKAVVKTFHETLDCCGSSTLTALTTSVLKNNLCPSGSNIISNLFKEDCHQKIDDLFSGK

Substance “H77c WT E2661-his, dimer (from UniProt P27958 384-661) (ligand)” displayed a fold higher affinity than the monomeric protein in assay [1] of 10 fold.

As for “H77c WT E2661-his, trimer (putative) (from UniProt P27958 384-661) (ligand)”, the fold higher affinity than the monomeric protein in assay [1] was 10 fold.

In the case of “H77c ΔHVR1+2+3 E2661-his, dimer (from UniProt P27958 384-661) (ligand)”, the fold higher affinity than the WT dimer in assay [2] came to 2 fold. The same substance gave a fold higher affinity than the monomeric protein in assay [1] of 10 fold.

As for “H77c ΔHVR1+2+3 E2661-his, trimer (putative) (from UniProt P27958 384-661) (ligand)”, the fold higher affinity than the monomeric protein in assay [1] is 10 fold.
